Experimental data: patent US12565665B2, “Compositions and methods for controlled mRNA translation and stability” (TRUSTEES OF BOSTON UNIVERSITY, priority 2022, dated 2026)

What was measured:
editable stop codons = experiment: Transfection of in vitro transcribed iADAR mRNA circuits, flow cytometry (mNeonGreen positive cells); format: cell-based, human; details: 100 ng mRNA; positive = greater than top 1% of non-transfected cells; ~48 hours
Procedure: In this case, the dADAR and ADAR constructs serve as negative and positive controls respectively. For the BAD(V) construct, cells only express mNeonGreen if A-1331852 is present during the transfection (see e.g., FIG. 61B).
To test this, the 3′ end of the plasmid was subsequently digested using Pmel, a DNA clean-up was performed, ARCA-capped mRNA was transcribed with T7 polymerase, the remaining DNA were digested with DNAse I, and a poly-A tail was added with E. coli Poly(A) Polymerase (all reagents and protocols from NEW ENGLAND BIO's HiScribe® T7 ARCA mRNA Kit (with tailing)). 70,000 HEK293FT cells were then transfected in suspension with 100 ng of each mRNA construct using Lipofectamine™ MessengerMAX™ Transfection Reagent. Cells were also treated with either DMSO or 1 μM of A-1331852. ˜48 hours after transfection, cells were analyzed by flow cytometry. mNeonGreen positive cells were determined as greater than the top 1% of gated non-transfected HEK cells (NT).

NS3a-genotype 1b = NS3a-genotype 1b (Hepatitis C virus genotype 1b, UniProt P26662); details: disrupted by NS3a-targeting drugs; read-out: affinity of basal complex; cited from earlier work
4×UAG MS2 reporter = 4×UAG MS2 reporter co-transfected with iADAR variants, flow cytometry; format: cell-based, human; details: 48 hours, n=3
Procedure: HEK293FT cells were co-transfected with the dual-input iADAR, the 4×UAG-MS2 reporter, and either EGFP(R96M) or EGFP(R96M)-AlfaTag on day 0. At the time of transfection, 500 nM of A-1331852 or DMSO was added to their respective conditions. 48 hours after transfection, cells were lifted and run via flow cytometry. The median mCherry to mNeonGreen ratio was computed for transfected cells were gated by BFP expression and mCherry expression. The experiment was then analyzed via one-way ANOVA (n=3 transfected cell populations per condition).
HEK293FT cells were co-transfected with the 4×UAG MS2 reporter and either an MCP-ADAR containing a peptide insertion at the 5′ RNA binding site (see e.g., FIG. 34b, Pep), grazoprevir iADAR (Pep-NS3) or a mutant version of the iADAR (Pep-NS3 (K690R)). At the time of transfection, 3 μM of DMSO or grazoprevir was added. 48 hours after transfection, cells were lifted and run via flow cytometry. […] The experiment was then analyzed via two-way ANOVA (n=3 transfected cell populations per condition).
To test this, LINC-ADAR constructs were created with WT, L699G, or F697Y mutations (see e.g., FIG. 35b) and HEK293FT cells were co-transfected with them and the 4×UAG-MS2 reporter in the presence of 2 μM grazoprevir or DMSO vehicle. 48 hours after transfection and drug treatment, cells were lifted and analyzed by flow cytometry. […]

MCP_ADAR2-DD(E396A & E488Q)_mCherry_FLAG_P2A_T2A_loop(UAG-UAG)_MS2(C)_HaloTag_loop(UAG-UAG)_MS2(C)_P2A_T2A HA_mNeonGreen(M10K) [dADAR mRNA]
population of mNeonGreen positive cells (editable stop codons): insignificant population

MCP_ADAR2-DD(E488Q)_mCherry_FLAG_P2A_T2A_loop(UAG-UAG)_MS2(C)_HaloTag_loop(UAG-UAG)_MS2(C)_P2A_T2A_HA_mNeonGreen(M10K) [ADAR mRNA]
population of mNeonGreen positive cells (editable stop codons): significant population of mNeonGreen positive cells

apo NS3a reader peptide, SEQ ID NO: 261, GELDELVYLLDGPGYDPIHSD [ANR]
Kd (NS3a-genotype 1b): 10 nM

B1: dual-input iADAR: N-terminal BAD, ALFA-PE at 5' RNA binding site, ADAR2-DD (F697Y), tandem AlfaNb and Bcl-xL at C-terminus (protein)
chain: MASNFTQFVLVDNGGTGDVTVAPSNFANGIAEWISSNSRSQAYKVTCSVRQSSAQNRKYTIKVEVPKGAWRSYLNMELTIPIFATNSDCELIVKAMQGLLKDGNPIPSAIAANSGIYGGSGSGAGSGSPAGGGAPGSGGGSTGAPPNLWAAQRYGRELRRMSDEFVDSFKKASQLHLPQVLADAVSRLVLGKFGDLTDNFSSPHARRKVLAGVVMTTGTDVKDAKVISVSTGTKCINGEYMSDRGLALNDCHAEIISRRSLLRFLYTQLELYLNNKDDQKRSIFQKSERGGFRLKENVQFHLYISTSPCGDARIFSPHEPILEEPAASGSGPGRLEEELRRRLSPGTGDRHPNRKARGQLRTKIESGQGTIPVRSNASIQTWDGVLQGERLLTMSCSDKIARWNVVGIQGSLLSIFVEPIYFSSIILGSLYHGDHLSRAMYQRISNIEDLPPLYTLNKPLLSGISNAEARQPGKAPNFSVNWTVGDSAIEVINATTGKDELGRASRLCKHALYCRWMRVHGKVPSHLLRSKITKPNVYHESKLAAKEYQAAKARLFTAFIKAGLGAWVEKPTEQDQYSLTGSGGTAEVQLQESGGGLVQPGGSLRLSCTASGVTISALNAMAMGWYRQAPGERRVMVAAVSERGNAMYRESVQGRFTVTRDFTNKMVSLQMDNLKPEDTAVYYCHVLEDRVDSFHDYWGQGTQVTVSSGAGSGASSNRELVVDFLSYKLSQKGYSWSQFSDVEENRTEAPEGTESEMETPSAINGNPSWHLADSPAVNGATGHSSSLDAREVIPMAAVKQALREAGDEFELRYRRAFSDLTSQLHITPGTAYQSFEQVVNELFRDGVNWGRIVAFFSFGGALCVESVDKEMQVLVSRIAAWMATYLNDHLEPWIQENGGWDTFVELYGNNGSSELIKENMHMKLYMEGTVDNHHFKCTSEGEGKPYEGTQTMRIKVVEGGPLPFAFDILATSFLYGSKTFINHTQGIPDFFKQSFPEGFTWERVTTYEDGGVLTATQDTSLQDGCLIYNVKIRGVNFTSNGPVMQKKTLGWEAFTETLYPADGGLEGRNDMALKLVGGSHLIANIKTTYRSKKPAKNLKMPGVYYVDYRLERIKEANNETYVEQHEVAVARYCDLPSKLGHKLN
median relative fluorescence with both A-1331852 and EGFP(R96M)-AlfaTag, fold greater than AlfaTag alone (4×UAG MS2 reporter; 500 nM of A-1331852): ~4.6 × | median relative fluorescence with AlfaTag and DMSO vs negative condition or A-1331852 treatment (4×UAG MS2 reporter; one-way ANOVA): significantly higher
